{"source": "paper PMC6904361", "about": "“Vitamin D Receptor Inhibits NLRP3 Activation by Impeding Its BRCC3-Mediated Deubiquitination” (Frontiers in Immunology, 2019)", "molecular_target": "T1, His-NLRP3 (human, UniProt Q96P20 1-1036)", "T1 construct": "human NLRP3 cloned into pET28a; The methods name only His-NLRP3; also called His-NLRP3-Flag; pET28a-His-NLRP3; source: E. coli (pET28a), IPTG-induced; called purified in the legend", "T1 sequence (Q96P20 whole entry)": "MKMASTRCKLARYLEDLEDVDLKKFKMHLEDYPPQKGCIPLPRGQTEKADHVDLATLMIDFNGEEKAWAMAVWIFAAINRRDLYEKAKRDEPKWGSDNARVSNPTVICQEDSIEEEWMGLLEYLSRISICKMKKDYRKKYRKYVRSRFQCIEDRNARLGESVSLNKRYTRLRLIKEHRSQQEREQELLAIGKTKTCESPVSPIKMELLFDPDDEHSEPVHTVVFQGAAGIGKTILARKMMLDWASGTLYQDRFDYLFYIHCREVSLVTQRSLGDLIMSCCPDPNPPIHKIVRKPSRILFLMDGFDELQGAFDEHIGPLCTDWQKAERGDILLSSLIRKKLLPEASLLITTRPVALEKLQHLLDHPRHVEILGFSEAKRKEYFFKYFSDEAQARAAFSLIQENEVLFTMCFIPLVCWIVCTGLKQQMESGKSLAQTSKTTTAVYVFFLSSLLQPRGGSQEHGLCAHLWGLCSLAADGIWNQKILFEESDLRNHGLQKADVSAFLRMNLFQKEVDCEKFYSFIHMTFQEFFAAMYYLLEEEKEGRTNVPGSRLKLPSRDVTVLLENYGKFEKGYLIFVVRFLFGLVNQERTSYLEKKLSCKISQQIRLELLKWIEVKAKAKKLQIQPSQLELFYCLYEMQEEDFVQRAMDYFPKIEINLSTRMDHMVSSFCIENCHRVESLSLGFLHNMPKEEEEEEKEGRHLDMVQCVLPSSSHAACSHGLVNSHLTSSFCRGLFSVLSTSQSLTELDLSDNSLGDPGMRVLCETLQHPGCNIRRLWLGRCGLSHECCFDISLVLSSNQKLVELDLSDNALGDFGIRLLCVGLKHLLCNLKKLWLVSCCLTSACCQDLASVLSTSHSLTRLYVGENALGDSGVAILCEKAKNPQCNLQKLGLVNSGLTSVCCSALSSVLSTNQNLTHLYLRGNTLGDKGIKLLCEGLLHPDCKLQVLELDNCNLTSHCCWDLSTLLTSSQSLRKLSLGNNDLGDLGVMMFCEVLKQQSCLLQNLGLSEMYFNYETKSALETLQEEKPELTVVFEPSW", "assay": "pull-down; GST or GST-VDR with His-NLRP3, pulled down on Glutathione MagBeads, immunoblot; incubation 2 h or overnight at 4 °C on a rotator (methods)", "conditions": "both partners purified", "data": [{"binder": "GST-human VDR (natural protein, UniProt P11473 1-427, looked up, human vitamin D receptor in pGEX-6P1; also called GST-VDR; pGEX6p-1-GST-VDR; source: E. coli BL21(DE3), IPTG-induced; called purified in the legend) MEAMAASTSLPDPGDFDRNVPRICGVCGDRATGFHFNAMTCEGCKGFFRRSMKRKALFTCPFNGDCRITKDNRRHCQACRLKRCVDIGMMKEFILTDEEVQRKREMILKRKEEEALKDSLRPKLSEEQQRIIAILLDAHHKTYDPTYSDFCQFRPPVRVNDGGGSHPSRPNSRHTPSFSGDSSSSCSDHCITSSDMMDSSSFSNLDLSEEDSDDPSVTLELSQLSMLPHLADLVSYSIQKVIGFAKMIPGFRDLTSEDQIVLLKSSAIEVIMLRSNESFTMDDMSWTCGNQDYKYRVSDVTKAGHSLELIEPLIKFQVGLKKLNLHEEEHVLLMAICIVSPDRPGVQDAALIEAIQDRLSNTLQTYIRCRHPPPGSHLLYAKMIQKLADLRSLNEEHSKQYRCLSFQPECSMKLTPLVLEVFGNEIS", "values": [{"measurement": "binding result", "value": "binds"}]}]}
